In the nanobody polyreactivity screen of Harvey et al. (2022):

Assay: yeast display, Sf9 membrane polyspecificity reagent, FACS + sequencing; frameworks hold sequencing errors
Summary of the method: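 After 36–48 hours of galactose induction, yeast (Saccharomyces cerevisiae BJ5465) displaying a synthetic nanobody library were stained at 4 °C for 1 hour with 10% biotinylated, detergent-solubilized Sf9 membrane reagent. Streptavidin microbeads enriched the stained cells before FACS sorting into low and high (top ~1%) gates on anti-HA and streptavidin fluorescence. Each clone's polyreactivity label reflects its gate of origin.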

| Sequence | polyreactivity (PSR sort gate) |
| --- | --- |
| QVQLVESGGGLVQAGGSLRLSCAASGRTFIYYAMGWYRQAPGKERELVAGISRNGGRTYYADSVKGRFTISRDNAKNTVYLQMNSLKPEDTAVYYCNAYPPSRHDYWGQGTQVTVSS | high polyreactivity |
| QVQLVESGGGLVQAGGSLRLSCAASGRTFKAYAMGWYRQAPGKEREFVAAITKRGGSTYYADSVKGRFTISRDNAKNTVYLQMNSLKPEDTAVYYCAVGLGRYTHTSVPIPSYDYWGQGTQVTVSS | high polyreactivity |
| QVQLVESGGGLVQAGGSLRLSCAASGRTFKCYAMGWYRQAPGKETELVAAISYRGGSTYYADSVKGRFTISRDNAKNTVYLQIKRLKPEDTAVYYCAARWNRGRYDYWGQGTQVTESS | high polyreactivity |
| QVQLVESGGGLVQAGGSLRLSCAASGRTFKENAMGWYRQAPGKERELVAVINSGGRTYYADSVKGRFTISRDNAKNTVYLQMNSLKPEDTAVYYCAAYSRSKESGYWGQGTQVTVSS | high polyreactivity |
| QVQLVESGGGLVQAGGSLRLSCAASGRTFKFYAMGWYRQAPGKERELVATITSGGSTYYADSVKGRFTISRDNAKNTVYLQMNSLKPEDTAVYYCNKRYRKPGSGWYDSWGQGTQVTVSS | high polyreactivity |
| QVQLVESGGGLVQAGGSLRLSCAASGRTFKGYAMGWYRQAPGKERELVAAISYRGGSTYYADSVKGRFTISRDNAKNTVYLQMNSLKPEDTAVYYCAARWNRGRYDYWGQGTQVTVSS | high polyreactivity |
| QVQLVESGGGLVQAGGSLRLSCAASGRTFKGYAMGWYRQAPGKERELVAGISTGGNTNYADSVMGRFTISRDNAKNTVYLQMNSLKPEDTAVYYCNAVYRGFTHYTGYEYWGQGTQVTVSS | high polyreactivity |
| QVQLVESGGGLVQAGGSLRLSCAASGRTFKGYAMGWYSQAPGKDRELVAAISYRGGSTYYADSVKGRFTISRDNAKNTGYLQMNILKPEDTAFYYCAARWNRGRYDYWGQGTQVTVSS | high polyreactivity |
| QVQLVESGGGLVQAGGSLRLSCAASGRTFKHYAMGGYRQAPGKERELVAAITSGGSTYYADSVKGRFTISRDNAKNTVYLQMNSLKPEDTAVYYCNKESYFDTYRRYDSWGQGTQVTVSS | low polyreactivity |
| QVQLVESGGGLVQAGGSLRLSCAASGRTFKIYAMGWYRQAPGKEREFVASINWSGGITYYADSVKGRFTISRDNAKNTVYLQMNSLKPEDTAVYYCAARIDSSRIGKRFYYWGQGTQVTVSS | high polyreactivity |
| QVQLVESGGGLVQAGGSLRLSCAASGRTFKKYALGWYRQAPGKEREVVAAITSRVRSTSYADSVKGRFTISRDNAKNTVYLQMNSLIPEDTAVYYCAARYSVGNGYGYWGQVTQVTVSS | high polyreactivity |
| QVQLVESGGGLVQAGGSLRLSCAASGRTFKKYAMGWYRQAPGKERELVAAIRRSGGSTYYADSVKGRFTISRDNAKNTVYLQMNSLKPEDTAVYYCAADFRVGRYDYWGQGTQVTVSS | high polyreactivity |
| QVQLVESGGGLVQAGGSLRLSCAASGRTFKKYAMGWYRQAPGKERELVAAITSRVGSTSYADSVKGRFTISRDNAKNTVYLQMNSLKPEDTAVYYCAARYSVGTGYGYWGQGTQVTVSS | high polyreactivity |
| QVQLVESGGGLVQAGGSLRLSCAASGRTFKKYAMGWYRQAPGTERELVAAFTGSGGSTYYADSVKGRFTISRDNAKNTVYLKMNSLKPEDTAVYYCAAYAYGVWHSQDGGNYWGQGTQVTVSS | low polyreactivity |
| QVQLVESGGGLVQAGGSLRLSCAASGRTFKKYTMGWYRQAPGKERELVAVITSGGSTYYADSVKGRFTISRDNAKNTVYLQMNSLKPEDTAVYYCATKASYKGDYWGQGTQVTVSS | high polyreactivity |
| QVQLVESGGGLVQAGGSLRLSCAASGRTFKLYAMGWYRQAPGKESELVAAISRSGGSTYYADSVKGRFTISRDNAKNTVYLQMKSLKPEDTAVYYCNRRQGYHGDYDYWGQGTQVTVSS | high polyreactivity |
| QVQLVESGGGLVQAGGSLRLSCAASGRTFKPNAMGWYRQAPGKERELVASINDVGSTNYADSVKGRFTISRDNAKNTVYLQMNSLKPEDTAVYYCAADPYWYPYYGYYILYDYWGQGTHVTVSS | low polyreactivity |
| QVQLVESGGGLVQAGGSLRLSCAASGRTFKRNAMGWYRQAPGKERELVAGISTGGSTNYADSVKGRFTISRDNAKNTVYLQMNSLKPEDTAVYYCAARYRTDWTPGYHVGYYYWGQGTQVTVSS | high polyreactivity |
| QVQLVESGGGLVQAGGSLRLSCAASGRTFKRNAMGWYRQAPGKERELVASISWRGGSTYYADSVKGRFTISRDNAKNTVFLQMKSLKPEDTAVYYCAAQYPVWRRLYRTWLVAEVDYWGQGTQVTVSS | low polyreactivity |
| QVQLVESGGGLVQAGGSLRLSCAASGRTFKRYAMGWYRQAPGKERELVAAITFSGGSTYYADSVKGRFTISRDNAKNTVYLQMNSLKPADTAVYYCAAVGEHYPWDYYWGQGTQVTVSS | high polyreactivity |
| QVQLVESGGGLVQAGGSLRLSCAASGRTFKRYAMGWYRQAPGKERELVARITYSGARTYYADSVKGRFTISRDNAKNTVYLQMNSLKPEDTAVYYCAAQQYWTSQYFRSATFDYWGQGTQVTVSS | high polyreactivity |
| QVQLVESGGGLVQAGGSLRLSCAASGRTFKRYAMGWYRQAPGNERELVAAIRRGGITNYADSVKGRFTISRDNAKNTVYLQMNSLKPEDTAVYYCAKDGVTYPYSYEYDYWGLGTQVTVSS | low polyreactivity |

| Sequence | polyreactivity (PSR sort gate) |
| --- | --- |
| QVQLVESGGGLVQAGGSLRLSCAASGRTFKVYAMGWYRQAPGKERELVASINRGSSTYADSVKGRFTISRDNAKNTVYLQMNSLKPEDTAVYYCAARWWRQSRYYYWGQGTQVTVSS | high polyreactivity |
| QVQLVESGGGLVQAGGSLRLSCAASGRTFKYKAMGWYRQAPGKERELVDAISSDDSTNYADSVKGRFTISRDKAQNTVYLQMNSLKPEDTAVYYCAARYGYSKWPDRVQAYKHDYWGQGTQVTVSS | low polyreactivity |
| QVQLVESGGGLVQAGGSLRLSCAASGRTFKYNAIGWYRQAPGKERELVAVISRSTGRTYYADSVKGRFTISRDNAKNTVYLQMNSLKPEDTAVYYCNRVSRQYYYQRGFEYDYWGQGTQVTVSS | high polyreactivity |
| QVQLVESGGGLVQAGGSLRLSCAASGRTFKYNAMGWYRQAPGKERELVAAITSSGGRTYYADSVKGRFTISRDNAKNTVYLQMNSLKPEDTAVYYCAARGYPSDYKYEYNYWGQGTQVTVSS | high polyreactivity |
| QVQLVESGGGLVQAGGSLRLSCAASGRTFKYNAMGWYRQAPGKRKELVAAISSGGSTYYADSVKGRFTISRDNAKNTVYLQMNSLKPEDTAVYYCAVRNTKSYWFGYWGQGTQVTVSS | high polyreactivity |
| QVQLVESGGGLVQAGGSLRLSCAASGRTFKYYALGWYRQAPGKERELVAAISNGGRTNYADSVKGRFTISRDNAKNTVYLQMNSLKPEDTAFYYCAKRTFYFSDYDYWGQGTQVTVSS | high polyreactivity |
| QVQLVESGGGLVQAGGSLRLSCAASGRTFKYYALGWYRQAPGKERELVAAISTRGGRTYADSVKGRFTISRDNAKNTVYLQMNSLKPEDTAVYYCARDSNVGHHGFDYWGQGTQVTVSS | low polyreactivity |
| QVQLVESGGGLVQAGGSLRLSCAASGRTFKYYAMGWYRQAPGKERELVAAISRRGGRTYYADSVKGRFTISRDNAKNTVYLQMNSLKPEDTAVYYCAAVFETGAGGFYYTLQYDSWGQGTQVTVSS | high polyreactivity |
| QVQLVESGGGLVQAGGSLRLSCAASGRTFKYYAMGWYRQAPGKERELVAAISRSGGTTYYADSVKGRFTISRDNAKNTVYLQMNSLKPEDTAVYYCAARCATRSRYDYWGQGTQVTVSS | high polyreactivity |
| QVQLVESGGGLVQAGGSLRLSCAASGRTFKYYAMGWYRQAPGKERELVAAISSGSSTYYADSVKGRFTISRDNAKNTVYLQMNSLKPEDTAVYYCNAVYKLSYLLSGTSEYYTYDYWGQGTQVTVSS | high polyreactivity |
| QVQLVESGGGLVQAGGSLRLSCAASGRTFKYYAMGWYRQAPGKERELVAAISYNGGSTFYADSVKGRFTFSRDNAKNTVYLQMNSLKPEDTAVYYCAAGPRGTGKYYWGQGTQVTVSS | high polyreactivity |
| QVQLVESGGGLVQAGGSLRLSCAASGRTFKYYAMGWYRQAPGKERELVASISNGGNTNYADSVKGRFTISRDNAKNTVYLQMNSLKPEDTAVYYCAAGYVVATRYDYWGQGTQVTVSS | high polyreactivity |
| QVQLVESGGGLVQAGGSLRLSCAASGRTFKYYAMGWYRQAPGKERELVASITRGSSTNYADSVKGRFTISRDNAKNTVYLQMNSLKPEDTAVYYCATGPGRALPRPTSAYYYWGQGTQVTVSS | high polyreactivity |
| QVQLVESGGGLVQAGGSLRLSCAASGRTFKYYTMGWYRQAPGKERELVAAITSDGSTNYADSVKGRFTISRDNAKNTVYLQMNSLKPEDTAVYYCAAEIRWVFLSYEYWGQGTQVTVSS | high polyreactivity |
| QVQLVESGGGLVQAGGSLRLSCAASGRTFLAYAMGWYRQAPGKERELVAAISKSGGRTYYADSVKGRFTISRDNAKNTVYLQMNSLKPEDTAVYYCAADKQAYVTDDYWGQGTQVTVSS | high polyreactivity |
| QVQLVESGGGLVQAGGSLRLSCAASGRTFLGYAMGWYRQAPGKERELVAAITSGTRTYADSVKGRFTISRDNAKYTVYLQMNSLKPEDTAVYYCAALRWQYRLYSYSFRSGRFDYWGQGTQVTVSS | low polyreactivity |
| QVQLVESGGGLVQAGGSLRLSCAASGRTFLGYAMGWYRQAPGKERELVAAITWRGGITYYADSVKGRFTISRDNAKNTVYLQMNSLKPEDTAVYYCARDYGQYGWYRYGRTFDNWGQGTQVTVSS | high polyreactivity |
| QVQLVESGGGLVQAGGSLRLSCAASGRTFLHNAMGWYRQAPGKERELVAAISSRGGSTYYADSVKGRFTISRDNAKNTVYLQMNSLKPEDTAVYYCAAYIYGTYYYWGQGTQVTVSS | high polyreactivity |
| QVQLVESGGGLVQAGGSLRLSCAASGRTFLHYAMGWYRPAPGKERELVAAMSWSGGSTNYADSVKGRFTISRDNAKNTVYLQMNSLKPEDTAVYYCAADFYWVIYSTVEYGYWGQGTQVTVSS | low polyreactivity |
| QVQLVESGGGLVQAGGSLRLSCAASGRTFLINAMGWYRQAPGKERELVAAITQSGGSTYYADSVKGRFTISRDNAKNTVYLQMNSLKPEDTAVYYCAADVPGVYPYDYWGQGTQVTVSS | low polyreactivity |
| QVQLVESGGGLVQAGGSLRLSCAASGRTFLIYAMGWYRQAPRKEREFVAAIRGRGGSTYYADSVKGRFTISRDNAKNTVYLQMNSLKPEDTAVYYCAATFPGRSFRIRGYGYDYWGQGTQVTVSS | high polyreactivity |
